*1 amine or outer side, *2 acyl side, *3 side chain or, on linkers, in order; H or OH if unused. Side-chain parts run from the residue outwards. The star is where a group is joined. C18 diacid = O=C(O)CCCCCCCCCCCCCCCCC(=O)*; γGlu = O=C(O)[C@H](CCC(=O)[*:2])N[*:1]; Isovaleryl = CC(C)CC(=O)*; AEEA = NCCOCCOCC(=O)O
T1: human neuropeptide Y2 receptor (human, UniProt P49146 1-381)
T1 construct: whole, on cells; also called hNPY2 receptor; hNPY2-R
T1 sequence (looked up): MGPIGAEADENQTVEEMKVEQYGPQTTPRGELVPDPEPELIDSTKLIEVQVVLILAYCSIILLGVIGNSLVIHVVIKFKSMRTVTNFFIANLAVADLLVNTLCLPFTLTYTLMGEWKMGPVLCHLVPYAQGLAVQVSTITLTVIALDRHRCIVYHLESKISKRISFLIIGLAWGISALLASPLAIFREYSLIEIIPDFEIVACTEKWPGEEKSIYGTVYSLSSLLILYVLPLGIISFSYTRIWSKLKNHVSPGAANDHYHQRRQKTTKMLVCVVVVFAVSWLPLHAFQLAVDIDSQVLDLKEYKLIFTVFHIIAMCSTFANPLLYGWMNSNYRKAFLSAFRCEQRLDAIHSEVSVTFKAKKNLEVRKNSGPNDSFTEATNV


Target: T1, human neuropeptide Y2 receptor
Assay: radioligand competition (125I-PYY(1-36)), hNPY2R membranes
Procedure, shortened: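 Commercial human Y2 receptor membranes (0.5 μg protein/well) were incubated with peptide for 2 h at room temperature in 50 mM HEPES, 5 mM MgCl₂, 1 mM CaCl₂, pH 7.4, with 0.2% ovalbumin. Bound radioligand was separated on PEI-soaked GF/C filters and counted by scintillation, and IC₅₀ came from nonlinear sigmoidal regression.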

Row | Binder | Ki [nM]
1 | Isovaleryl-APEK([AEEA-AEEA-γGlu-C18 diacid])AEEDASEEELQRYYVSLRHYYNWLTRQRY-NH2 (SMILES CC(C)CC(=O)N[C@@H](C)C(=O)N1CCC[C@H]1C(=O)N[C@@H](CCC(=O)O)C(=O)N[C@@H](CCCCNC(=O)COCCOCCNC(=O)COCCOCCNC(=O)CC[C@H](NC(=O)CCCCCCCCCCCCCCCCC(=O)O)C(=O)O)C(=O)N[C@@H](C)C(=O)N[C@@H](CCC(=O)O)C(=O)N[C@@H](CCC(=O)O)C(=O)N[C@@H](CC(=O)O)C(=O)N[C@@H](C)C(=O)N[C@@H](CO)C(=O)N[C@@H](CCC(=O)O)C(=O)N[C@@H](CCC(=O)O)C(=O)N[C@@H](CCC(=O)O)C(=O)N[C@@H](CC(C)C)C(=O)N[C@@H](CCC(N)=O)C(=O)N[C@@H](CCCNC(=N)N)C(=O)N[C@@H](Cc1ccc(O)cc1)C(=O)N[C@@H](Cc1ccc(O)cc1)C(=O)N[C@H](C(=O)N[C@@H](CO)C(=O)N[C@@H](CC(C)C)C(=O)N[C@@H](CCCNC(=N)N)C(=O)N[C@@H](Cc1c[nH]cn1)C(=O)N[C@@H](Cc1ccc(O)cc1)C(=O)N[C@@H](Cc1ccc(O)cc1)C(=O)N[C@@H](CC(N)=O)C(=O)N[C@@H](Cc1c[nH]c2ccccc12)C(=O)N[C@@H](CC(C)C)C(=O)N[C@H](C(=O)N[C@@H](CCCNC(=N)N)C(=O)N[C@@H](CCC(N)=O)C(=O)N[C@@H](CCCNC(=N)N)C(=O)N[C@@H](Cc1ccc(O)cc1)C(N)=O)[C@@H](C)O)C(C)C) [Compound 52] | 8.53
2 | Isovaleryl-APEK([AEEA-AEEA-γGlu-C18 diacid])PEEAASPEELEQYYVSLRHYYNWLTRQRY-NH2 (SMILES CC(C)CC(=O)N[C@@H](C)C(=O)N1CCC[C@H]1C(=O)N[C@@H](CCC(=O)O)C(=O)N[C@@H](CCCCNC(=O)COCCOCCNC(=O)COCCOCCNC(=O)CC[C@H](NC(=O)CCCCCCCCCCCCCCCCC(=O)O)C(=O)O)C(=O)N1CCC[C@H]1C(=O)N[C@@H](CCC(=O)O)C(=O)N[C@@H](CCC(=O)O)C(=O)N[C@@H](C)C(=O)N[C@@H](C)C(=O)N[C@@H](CO)C(=O)N1CCC[C@H]1C(=O)N[C@@H](CCC(=O)O)C(=O)N[C@@H](CCC(=O)O)C(=O)N[C@@H](CC(C)C)C(=O)N[C@@H](CCC(=O)O)C(=O)N[C@@H](CCC(N)=O)C(=O)N[C@@H](Cc1ccc(O)cc1)C(=O)N[C@@H](Cc1ccc(O)cc1)C(=O)N[C@H](C(=O)N[C@@H](CO)C(=O)N[C@@H](CC(C)C)C(=O)N[C@@H](CCCNC(=N)N)C(=O)N[C@@H](Cc1c[nH]cn1)C(=O)N[C@@H](Cc1ccc(O)cc1)C(=O)N[C@@H](Cc1ccc(O)cc1)C(=O)N[C@@H](CC(N)=O)C(=O)N[C@@H](Cc1c[nH]c2ccccc12)C(=O)N[C@@H](CC(C)C)C(=O)N[C@H](C(=O)N[C@@H](CCCNC(=N)N)C(=O)N[C@@H](CCC(N)=O)C(=O)N[C@@H](CCCNC(=N)N)C(=O)N[C@@H](Cc1ccc(O)cc1)C(N)=O)[C@@H](C)O)C(C)C) [Compound 60] | 5.95
3 | Isovaleryl-APEK([AEEA-AEEA-γGlu-C18 diacid])PEEDASPEEAQRYYVSLRHYYNWLTRQRY-NH2 (SMILES CC(C)CC(=O)N[C@@H](C)C(=O)N1CCC[C@H]1C(=O)N[C@@H](CCC(=O)O)C(=O)N[C@@H](CCCCNC(=O)COCCOCCNC(=O)COCCOCCNC(=O)CC[C@H](NC(=O)CCCCCCCCCCCCCCCCC(=O)O)C(=O)O)C(=O)N1CCC[C@H]1C(=O)N[C@@H](CCC(=O)O)C(=O)N[C@@H](CCC(=O)O)C(=O)N[C@@H](CC(=O)O)C(=O)N[C@@H](C)C(=O)N[C@@H](CO)C(=O)N1CCC[C@H]1C(=O)N[C@@H](CCC(=O)O)C(=O)N[C@@H](CCC(=O)O)C(=O)N[C@@H](C)C(=O)N[C@@H](CCC(N)=O)C(=O)N[C@@H](CCCNC(=N)N)C(=O)N[C@@H](Cc1ccc(O)cc1)C(=O)N[C@@H](Cc1ccc(O)cc1)C(=O)N[C@H](C(=O)N[C@@H](CO)C(=O)N[C@@H](CC(C)C)C(=O)N[C@@H](CCCNC(=N)N)C(=O)N[C@@H](Cc1c[nH]cn1)C(=O)N[C@@H](Cc1ccc(O)cc1)C(=O)N[C@@H](Cc1ccc(O)cc1)C(=O)N[C@@H](CC(N)=O)C(=O)N[C@@H](Cc1c[nH]c2ccccc12)C(=O)N[C@@H](CC(C)C)C(=O)N[C@H](C(=O)N[C@@H](CCCNC(=N)N)C(=O)N[C@@H](CCC(N)=O)C(=O)N[C@@H](CCCNC(=N)N)C(=O)N[C@@H](Cc1ccc(O)cc1)C(N)=O)[C@@H](C)O)C(C)C) [Compound 55] | 3.35

Now those with a lower Ki, led by results:

Row | Ki [nM] | Binder
4 | 3.13 | Isovaleryl-APEK([AEEA-AEEA-γGlu-C18 diacid])PEEDASPEELQRYYVSLRAYYNWLTRQRY-NH2 (SMILES CC(C)CC(=O)N[C@@H](C)C(=O)N1CCC[C@H]1C(=O)N[C@@H](CCC(=O)O)C(=O)N[C@@H](CCCCNC(=O)COCCOCCNC(=O)COCCOCCNC(=O)CC[C@H](NC(=O)CCCCCCCCCCCCCCCCC(=O)O)C(=O)O)C(=O)N1CCC[C@H]1C(=O)N[C@@H](CCC(=O)O)C(=O)N[C@@H](CCC(=O)O)C(=O)N[C@@H](CC(=O)O)C(=O)N[C@@H](C)C(=O)N[C@@H](CO)C(=O)N1CCC[C@H]1C(=O)N[C@@H](CCC(=O)O)C(=O)N[C@@H](CCC(=O)O)C(=O)N[C@@H](CC(C)C)C(=O)N[C@@H](CCC(N)=O)C(=O)N[C@@H](CCCNC(=N)N)C(=O)N[C@@H](Cc1ccc(O)cc1)C(=O)N[C@@H](Cc1ccc(O)cc1)C(=O)N[C@H](C(=O)N[C@@H](CO)C(=O)N[C@@H](CC(C)C)C(=O)N[C@@H](CCCNC(=N)N)C(=O)N[C@@H](C)C(=O)N[C@@H](Cc1ccc(O)cc1)C(=O)N[C@@H](Cc1ccc(O)cc1)C(=O)N[C@@H](CC(N)=O)C(=O)N[C@@H](Cc1c[nH]c2ccccc12)C(=O)N[C@@H](CC(C)C)C(=O)N[C@H](C(=O)N[C@@H](CCCNC(=N)N)C(=O)N[C@@H](CCC(N)=O)C(=O)N[C@@H](CCCNC(=N)N)C(=O)N[C@@H](Cc1ccc(O)cc1)C(N)=O)[C@@H](C)O)C(C)C) [Compound 63]
5 | 1.26 | Isovaleryl-APEK([AEEA-AEEA-γGlu-C18 diacid])PEADAEPEELQRYYVSLRHYYNWLTRQRY-NH2 (SMILES CC(C)CC(=O)N[C@@H](C)C(=O)N1CCC[C@H]1C(=O)N[C@@H](CCC(=O)O)C(=O)N[C@@H](CCCCNC(=O)COCCOCCNC(=O)COCCOCCNC(=O)CC[C@H](NC(=O)CCCCCCCCCCCCCCCCC(=O)O)C(=O)O)C(=O)N1CCC[C@H]1C(=O)N[C@@H](CCC(=O)O)C(=O)N[C@@H](C)C(=O)N[C@@H](CC(=O)O)C(=O)N[C@@H](C)C(=O)N[C@@H](CCC(=O)O)C(=O)N1CCC[C@H]1C(=O)N[C@@H](CCC(=O)O)C(=O)N[C@@H](CCC(=O)O)C(=O)N[C@@H](CC(C)C)C(=O)N[C@@H](CCC(N)=O)C(=O)N[C@@H](CCCNC(=N)N)C(=O)N[C@@H](Cc1ccc(O)cc1)C(=O)N[C@@H](Cc1ccc(O)cc1)C(=O)N[C@H](C(=O)N[C@@H](CO)C(=O)N[C@@H](CC(C)C)C(=O)N[C@@H](CCCNC(=N)N)C(=O)N[C@@H](Cc1c[nH]cn1)C(=O)N[C@@H](Cc1ccc(O)cc1)C(=O)N[C@@H](Cc1ccc(O)cc1)C(=O)N[C@@H](CC(N)=O)C(=O)N[C@@H](Cc1c[nH]c2ccccc12)C(=O)N[C@@H](CC(C)C)C(=O)N[C@H](C(=O)N[C@@H](CCCNC(=N)N)C(=O)N[C@@H](CCC(N)=O)C(=O)N[C@@H](CCCNC(=N)N)C(=O)N[C@@H](Cc1ccc(O)cc1)C(N)=O)[C@@H](C)O)C(C)C) [Compound 56]
6 | 0.4 | Isovaleryl-APEK([AEEA-AEEA-γGlu-C18 diacid])PPEDASPEEIQRYYVSLRHYYNWLTRQRY-NH2 (SMILES CC[C@H](C)[C@H](NC(=O)[C@H](CCC(=O)O)NC(=O)[C@H](CCC(=O)O)NC(=O)[C@@H]1CCCN1C(=O)[C@H](CO)NC(=O)[C@H](C)NC(=O)[C@H](CC(=O)O)NC(=O)[C@H](CCC(=O)O)NC(=O)[C@@H]1CCCN1C(=O)[C@@H]1CCCN1C(=O)[C@H](CCCCNC(=O)COCCOCCNC(=O)COCCOCCNC(=O)CC[C@H](NC(=O)CCCCCCCCCCCCCCCCC(=O)O)C(=O)O)NC(=O)[C@H](CCC(=O)O)NC(=O)[C@@H]1CCCN1C(=O)[C@H](C)NC(=O)CC(C)C)C(=O)N[C@@H](CCC(N)=O)C(=O)N[C@@H](CCCNC(=N)N)C(=O)N[C@@H](Cc1ccc(O)cc1)C(=O)N[C@@H](Cc1ccc(O)cc1)C(=O)N[C@H](C(=O)N[C@@H](CO)C(=O)N[C@@H](CC(C)C)C(=O)N[C@@H](CCCNC(=N)N)C(=O)N[C@@H](Cc1c[nH]cn1)C(=O)N[C@@H](Cc1ccc(O)cc1)C(=O)N[C@@H](Cc1ccc(O)cc1)C(=O)N[C@@H](CC(N)=O)C(=O)N[C@@H](Cc1c[nH]c2ccccc12)C(=O)N[C@@H](CC(C)C)C(=O)N[C@H](C(=O)N[C@@H](CCCNC(=N)N)C(=O)N[C@@H](CCC(N)=O)C(=O)N[C@@H](CCCNC(=N)N)C(=O)N[C@@H](Cc1ccc(O)cc1)C(N)=O)[C@@H](C)O)C(C)C) [Compound 61]
